Where “and” joins values, the source holds several entries; their conditions need not be identical. Identical values can stand only once.
How the values were obtained:
[1] = test system: cell membrane of HEK293 cells; assay: Homologous competition assay: binding of 125I-BDD-FVIII to the cell membrane with blocking agents; details: for % of total binding: 0.5 nM 125I-FVIII, 4° C., 2 hours, Annexin V 500 nM, OPLS 20 mM, Heparin 100 ug/mL, RAP 500 nM; for reduction of membrane attached FVIII: same experiment as Table 2
Protocol: The affinity of purified B-domain deleted factor VIII (BDD-FVIII) (kindly provided by J. Karlsson and L. Thim, Novo Nordisk A/S) to the cell membrane of HEK293 cells was investigated by a homologous competition assay using ^125I-BDD-FVIII and unlabelled BDD-FVIII. Cells were washed once in PBS+1% BSA. 5×10^5 cells were distributed to a microtiter well and the plate was cooled to 4° C. During blocking of the cell surface, binding of BDD-FVIII was examined. A constant concentration of ^125I-FVIII (0.5 nM) was added simultaneously with either Annexin V (0.5 μM, Sigma), Ortho-Phospho-L-serine (20 mM, Sigma), Heparin (100 μg mL-1, Leo Pharmaceuticals), and Receptor Associated Protein (RAP) 0.5 μM (kindly provided by H. H. Petersen, Novo Nordisk A/S) at 4° C. to prevent endocytosis.
The plate was incubated at 4° C. for 2 hours with gentle shaking. After centrifugation unbound (non-membrane attached) ^125I-FVIII was removed and cells were washed twice in ice-cold assay buffer (10 mM HEPES, 150 mM NaCl, 4 mM KCl, 11 mM glucose, 5 mM CaCl2, 1 mg ml^−1 BSA, pH 7.4). Surface bound ^125I-FVIII was counted on a gamma-counter. The experiments were performed twice in triplicate. Non-specific binding was estimated in the presence of 12000× excess of unlabeled BDD Factor VIII.
In an attempt to determine potent inhibitors of the cell membrane interaction, four proteins known for their specific effect in either: 1) blocking phosphatidylserine (annexin V), 2) interacting with the C2 domain of FVIII (OPLS), 3) interacting with receptors that facilitate internalisation followed by degradation such as LRP (Lipoprotein receptor-related protein) and HSPGs (heparin sulphate proteoglycans) were tested (RAP, heparin).

[2] = test system: CHO DUKX B11 cells stably expressing BDD-FVIII; assay: FVIII membrane displacement cell cultures (additives in culture medium, culture fluid and membrane bound fraction assayed); format: cell-based; details: 24 hours, serum free medium, OPLS 20 mM, F8 LC 1.38 μM, Lactadherin 0.15 μM, unit from b101
Protocol: The additives mentioned below (lactadherin, Factor VIII light chain and/or OPLS) were added to the culture medium and the cells were incubated for 24 hours following assaying of the culture fluid and the membrane bound fraction.

HKB11 cells [3] = assay: Transient co-expression with F8, FVIII coagulation activity (two-stage chromogenic assay, coa); format: cell-based; details: for displacement of F8 from the cell surface into the supernatant: in words
Protocol: (§1) HEK293 cells were maintained in commercial FreeStyle medium supplemented with 50 U/mL penicillin and 50 ug/mL streptomycin. Cells were grown as suspension cells in shakers and incubated at 37° C. under 5% CO2 and 95% relative humidity conditions.
(§2) Cells were seeded at a density of 3×10^5 cells/mL and passaged every 3-4 days. For transfection experiments the cell culture was scaled up until the target density was reached. Viable and total cell concentrations were evaluated by Cedex (Innovartis) analysis. The instrument uses image analysis software for automated cell counting and viable cells were identified based on their ability to exclude trypan blue.
(§3) Plasmid DNA was transfected into HKB11 cells by 293 fectin following the manufacturer's recommendations. Conditioned medium was harvested on indicated days following gentle centrifugation of the suspension culture. The cell pellet was resuspended in FreeStyle medium containing 0.5M NaCl and after gentle centrifugation, a sample, representing the FVIII attached to the cell membrane was taken. Samples were stored at −80° C. until analysis.
(§4) FVIII coagulation activity was measured by a two-stage chromogenic assay (Coamatic Factor VIII analysis kit, Chromogenix). Factor VIII:Ag assay was performed using polyclonal antibodies from Affinity Biologicals (F8C-EIA). Both assays were done following the manufactures instructions and with in-house B-domain deleted affinity purified Factor VIII as standard.

HKB11 cells [4] = assay: Transient co-expression with F8, Factor VIII:Ag ELISA; format: cell-based
Protocol: as §1, §2, §3, §4

N[C@@H](COP(=O)(O)O)C(=O)O [OPLS, Ortho-Phospho-L-serine, reference compound]
% of total binding [1]: 68.4% | reduction of membrane attached FVIII [1]: ~30% | supernatant average (activity of FVIII in the culture medium) [2]: 6000 mU/mL and 6347 mU/mL | wash average (FVIII activity on the membrane) [2]: 1691 mU/mL

RAP: Receptor Associated Protein (RAP)
% of total binding [1]: 106.6% | reduction of membrane attached FVIII [1]: no effect

Heparin
% of total binding [1]: 86.8% | reduction of membrane attached FVIII [1]: small but not significant effect

B1: Annexin V: Ca++ dependent phospholipid-binding protein that react with phosphatidylserine (Sigma) (protein)
chain: MAQVLRGTVTDFPGFDERADAETLRKAMKGLGTDEESILTLLTSRSNAQRQEISAAFKTLFGRDLLDDLKSELTGKFEKLIVALMKPSRLYDAYELKHALKGAGTNEKVLTEIIASRTPEELRAIKQVYEEEYGSSLEDDVVGDTSGYYQRMLVVLLQANRDPDAGIDEAQVEQDAQALFQAGELKWGTDEEKFITIFGTRSVSHLRKVFDKYMTISGFQIEETIDRETSGNLEQLLLAVVKSIRSIPAYLAETLYYAMKGAGTDDHTLIRVMVSRSEIDLFNIRKEFRKNFATSLYSMIKGDTSGDYKKALLLLCGEDD
modifications: homo sapiens
% of total binding [1]: 28.5% | reduction of membrane attached FVIII [1]: ~70%

B2: Lactadherin: lactadherin, agent that binds to phosphatidylserine; added to medium or co-expressed with F8 (protein)
chain: LDICSKNPCHNGGLCEEISQEVRGDVFPSYTCTCLKGYAGNHCETKCVEPLGMENGNIANSQIAASSVRVTFLGLQHWVPELARLNRAGMVNAWTPSSNDDNPWIQVNLLRRMWVTGVVTQGASRLASHEYLKAFKVAYSLNGHEFDFIHDVNKKHKEFVGNWNKNAVHVNLFETPVEAQYVRLYPTSCHTACTLRFELLGCELNGCANPLGLKNNSIPDKQITASSSYKTWGLHLFSWNPSYARLDKQGNFNAWVAGSYGNDQWLQVDLGSSKEVTGIITQGARNFGSVQFVASYKVAYSNDSANWTEYQDPRTGSSKIFPGNWDNHSHKKNLFETPILARYVRILPVAWHNRIALRLELLGC
modifications: homo sapiens
notes: added to medium or co-expressed with F8
supernatant average (activity of FVIII in the culture medium) [2]: 8085 mU/mL | wash average (FVIII activity on the membrane) [2]: 1406 mU/mL | supernatant average (activity of FVIII in the culture medium) ([2]; listed as lactadherin): further increases the amount of FVIII in the culture medium | wash average (FVIII activity on the membrane) ([2]; listed as lactadherin): a decline in membrane bound FVIII is observed | displacement of F8 from the cell surface into the supernatant (HKB11 cells [3]; day 3, viability ~90%): effectively displacement | displacement of F8 from the cell surface into the supernatant (HKB11 cells [3]; day 4, viability ~80%): could no longer keep F8 in the supernatant | coa, supernatant (HKB11 cells [3]; harvest day 3, supernatant): 5448 +/− 122 mU/ml | coa, wash (HKB11 cells [3]; harvest day 3, wash (0.5M NaCl, membrane attached FVIII)): 640 +/− 116 mU/ml | coa, supernatant (HKB11 cells [3]; harvest day 4, supernatant): 1044 +/− 425 mU/ml | coa, wash (HKB11 cells [3]; harvest day 4, wash (0.5M NaCl, membrane attached FVIII)): 3575 +/− 558 mU/ml | coa, supernatant (HKB11 cells [3]; harvest day 5, supernatant): 327 +/− 13 mU/ml | coa, wash (HKB11 cells [3]; harvest day 5, wash (0.5M NaCl, membrane attached FVIII)): 3510 +/− 46 mU/ml | FVIII ELISA, supernatant (HKB11 cells [4]; harvest day 3, supernatant): 530 ± 113 ng/mL | FVIII ELISA, wash (HKB11 cells [4]; harvest day 3, wash): 67 ± 0 ng/mL | FVIII ELISA, supernatant (HKB11 cells [4]; harvest day 4, supernatant): 270 ± 54 ng/mL | FVIII ELISA, wash (HKB11 cells [4]; harvest day 4, wash): 278 ± 37 ng/mL | FVIII ELISA, supernatant (HKB11 cells [4]; harvest day 5, supernatant): 108 ± 119 ng/mL | FVIII ELISA, wash (HKB11 cells [4]; harvest day 5, wash): 287 ± 33 ng/mL
